Consider 23 substances from publication PMC2697983.

The first data set has as its target T1, His-SLM-2 (UniProt Q9R226).
T1 sequence: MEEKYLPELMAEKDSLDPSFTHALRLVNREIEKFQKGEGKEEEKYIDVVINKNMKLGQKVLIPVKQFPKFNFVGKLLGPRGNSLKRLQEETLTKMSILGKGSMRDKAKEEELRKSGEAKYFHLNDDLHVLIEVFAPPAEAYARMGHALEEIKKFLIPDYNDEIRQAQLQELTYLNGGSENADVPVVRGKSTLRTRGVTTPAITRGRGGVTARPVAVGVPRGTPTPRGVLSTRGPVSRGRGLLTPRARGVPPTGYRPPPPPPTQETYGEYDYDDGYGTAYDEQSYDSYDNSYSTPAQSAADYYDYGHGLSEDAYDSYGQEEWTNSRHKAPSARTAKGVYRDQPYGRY
Kind of data set: EMSA. To be noted: EMSA: 20 mM HEPES pH 7.4, 330 mM KCl, 10 mM MgCl2, 0.1 mM EDTA, 0.1 mg/ml heparin, 0.01% IGEPAL CA630, room temperature, 1 h; SELEX: 50 mM Tris-HCl pH 8.0 ….
With UAAUUUGGAUUUCUUGAGCUUAUGGCU [SRE-7d7], the Kd was greater than 1000 nM.

GGUUAAUUUGGAUUUCUUGAGCUUAUG [SRE-7d3]: the Kd was greater than 1000 nM.

For “AUCGUGGUGGGCGGUUAAUUUGGAUUUCUUGAGCUUAUGGCUCGACGCAUGGG [SRE-7m3]”, the equilibrium dissociation constant (Kd) was greater than 1000 nM.

For the substance “GGUUCUAUAAAAAUUUUCACUAUCCUAUUAACAGUUCC [SRE-4wt]”, the Kd stood at 16.3 nM.

In the case of GGAUUUCUUGAGCUUAUGGCUUUUAAU [SRE-7d6], the Kd is greater than 1000 nM.

With GUGGGCGGUUAAUUUGGAUUUCUUGAG [SRE-7d2], the Kd is greater than 1000 nM.

Regarding UUUCUUGAGCUUAUGGCUUUUAAUAUGG [SRE-7d5], the Kd was greater than 1000 nM.

Regarding “AUCGUAAUAAACAAUUAAUUUGGAUUUCUUGAGCUUAUGGCUUUUAAUAUGGG [SRE-7m2]”, the dissociation constant Kd worked out at 14.5 nM.

On to “GGUUCUACCCCAAUUUUCACUAUCCUAUUAACAGUUCC [SRE-4m2]”, for which the Kd was greater than 1000 nM.

On to “GGUUCUAUAAAAAUUUUCACUAUCCUACCCCCAGUUCC [SRE-4m3]”, for which the Kd was greater than 1000 nM.

Turning to “GGUUCUACCCCAAUUUUCACUAUCCUACCCCCAGUUCC [SRE-4m1]”, the Kd was greater than 1000 nM.

As for UUUGGAUUUCUUGAGCUUAUGGCUUUU [SRE-7d4], the Kd was greater than 1000 nM.

Regarding “GGUUAAUCUGGAUUUCUUGAGCUUAUGGCUUUUCCUAUGG [SRE-7d9m3]”, the Kd amounted to 400 nM.

Take “GGUUAAUUUGGAUUUCUUGAGCUUAUGGCUUUU [SRE-7d8]”: the Kd was greater than 1000 nM.

Regarding “GGUUCCUUUGGAUUUCUUGAGCUUAUGGCUUUUAAUAUGG [SRE-7d9m2]”, the Kd came to 400 nM.

“GGUUAAUUUGGAUUUCUUGAGCUUAUGGCUUUUAAUAUGG [SRE-7d9]”: the Kd stood at 22.3 nM.

In the case of “GGUUCCCCUGGAUUUCUUGAGCUUAUGGCUUUCCCCAUGG [SRE-7d9m1]”, the Kd is greater than 1000 nM.

As for “GGUUCUAUACCCCCUUUCACUAUCCUAUUAACAGUUCC [SRE-4m4]”, the Kd is greater than 1000 nM.

“AUCGUGGUGGGCGGUUAAUUUGGAUUUCUUGAGCUUAUGGCUUUUAAUAUGGG [SRE-7wt]”: the Kd worked out at 30.3 nM.

Turning to AUCGUGGUGGGCGGUUAAUUUGGAUUU [SRE-7d1], the Kd is greater than 1000 nM.

In the case of “AUCUUGUUCUCCGCUUAAUUUGGAUUUCUUGAGCUUAUGGCUUUUAAUAUGGG [SRE-7m1]”, the Kd turned out to be 45.2 nM.

For the next data set, the system named is MBP-GLD-1 (C. elegans). Kind of data set: EMSA. To be noted: EMSA: 20 mM HEPES pH 7.4, 330 mM KCl, 10 mM MgCl2, 0.1 mM EDTA, 0.1 mg/ml heparin, 0.01% IGEPAL CA630, room temperature, 1 h; SELEX: 50 mM Tris-HCl pH 8.0 ….
Regarding TGE-wt, the Kd amounted to 104 nM.

The test system of the next data set is GST-QKI-5. Kind of data set: EMSA. To be noted: EMSA: 20 mM HEPES pH 7.4, 330 mM KCl, 10 mM MgCl2, 0.1 mM EDTA, 0.1 mg/ml heparin, 0.01% IGEPAL CA630, room temperature, 1 h; SELEX: 50 mM Tris-HCl pH 8.0 ….
Turning to TGE-wt, the Kd came to 300 nM.

Turning to QRE-2:wt, the Kd is 121 nM.
